The text below walks through data of patent US20220275095A1 (SURROZEN OPERATING, published 2022).

One assay concerns the target T1, mouse Fzd3 CRD (mouse, UniProt Q61086 23-138, limits assumed).
T1 construct: domain: cysteine rich domain (CRD)
T1 sequence (looked up): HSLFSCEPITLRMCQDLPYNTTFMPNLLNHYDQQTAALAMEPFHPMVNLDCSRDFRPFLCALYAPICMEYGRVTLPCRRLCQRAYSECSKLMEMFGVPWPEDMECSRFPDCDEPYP
Nature of the assay: BLI. As for the experimental part: (§1) C-terminal biotinylated Fzd CRD recombinant protein was diluted to 20 nM in the running buffer (PBS, 0.05% Tween-20, 0.5% BSA, pH 7.2) and captured to the SA biosensor until coupling length reached 0.2 nm. Following capture of the Fzd CRD, the SA biosensor with captured biotinylated-Fzd CRD was dipped into wells containing the relevant antibody fragment at 7 different concentrations (0, 1.37, 4.12, 12.4, 37, 111.1, 333.3, 1000 nM) in running buffer, plus a well with only running buffer as a reference channel. KD was determined by global fitting, 1:1 binding model according to manufacturer recommended settings.

Another assay addresses T2, human Fzd3 CRD (human, UniProt Q9NPG1 23-138, limits assumed).
T2 construct: domain: cysteine rich domain (CRD)
T2 sequence (looked up): T1 sequence (looked up)
As to the kind of experiment: BLI. The procedure: as §1

The next assay has as its target T3, human Fzd4 CRD (human, UniProt Q9ULV1 37-163, limits assumed).
T3 construct: domain: cysteine rich domain (CRD)
T3 sequence (looked up): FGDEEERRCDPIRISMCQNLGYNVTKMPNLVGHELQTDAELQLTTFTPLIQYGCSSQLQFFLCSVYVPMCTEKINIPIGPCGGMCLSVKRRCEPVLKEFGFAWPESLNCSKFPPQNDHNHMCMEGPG
Nature of the assay: BLI. As for the experimental part: as §1

The target of another assay is T4, mouse Fzd9 CRD (mouse, UniProt Q9R216 24-158, limits assumed).
T4 construct: domain: cysteine rich domain (CRD)
T4 sequence (looked up): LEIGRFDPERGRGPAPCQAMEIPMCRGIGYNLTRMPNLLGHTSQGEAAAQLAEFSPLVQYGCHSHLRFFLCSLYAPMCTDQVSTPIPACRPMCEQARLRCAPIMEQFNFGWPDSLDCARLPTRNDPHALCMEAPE
As to the kind of experiment: BLI. As for the experimental part:
as §1

The next assay has as its target T5, human Fzd6 CRD (human, UniProt O60353 19-134, limits assumed).
T5 construct: domain: cysteine rich domain (CRD)
T5 sequence (looked up): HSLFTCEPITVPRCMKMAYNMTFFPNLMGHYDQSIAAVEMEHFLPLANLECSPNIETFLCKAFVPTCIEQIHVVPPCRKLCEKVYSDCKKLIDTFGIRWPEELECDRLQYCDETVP
As to the kind of experiment: BLI. The procedure: as §1

For another assay, the target named is mouse Fzd1 CRD (mouse, UniProt O70421 100-227). As to the kind of experiment: BLI. The procedure:
as §1

The target of a further assay is mouse Fzd2 CRD (mouse, UniProt Q9JIP6 29-160). As to the kind of experiment: BLI. As for the experimental part: as §1
A further assay has as its target human Fzd1 CRD (human, UniProt Q9UP38 105-232). Nature of the assay: BLI. The procedure: as §1
In a further assay the target is T6, human Fzd5 CRD (human, UniProt Q13467 27-152, limits assumed).
T6 construct: domain: cysteine rich domain (CRD)
T6 sequence (looked up): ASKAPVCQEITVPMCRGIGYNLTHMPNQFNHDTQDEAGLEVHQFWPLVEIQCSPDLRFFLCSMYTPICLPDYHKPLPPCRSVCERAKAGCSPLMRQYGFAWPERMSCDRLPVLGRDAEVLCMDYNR
As to the kind of experiment: BLI. As for the experimental part:
as §1

For a further assay, the target named is T7, mouse Fzd5 CRD (mouse, UniProt Q9EQD0 27-152, limits assumed).
T7 construct: domain: cysteine rich domain (CRD)
T7 sequence (looked up): T6 sequence (looked up) with Q51H, R115G
As to the kind of experiment: BLI. The procedure: as §1

For a further assay, the target named is T8, mouse Fzd10 CRD (mouse, UniProt Q8BKG4 22-153, limits assumed).
T8 construct: domain: cysteine rich domain (CRD)
T8 sequence (looked up): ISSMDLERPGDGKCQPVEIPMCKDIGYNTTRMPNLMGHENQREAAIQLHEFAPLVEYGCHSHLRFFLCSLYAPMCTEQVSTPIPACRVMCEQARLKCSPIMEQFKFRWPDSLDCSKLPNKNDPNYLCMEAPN
Nature of the assay: BLI. The procedure:
as §1

The target in a further assay is T9, human Fzd10 CRD (human, UniProt Q9ULW2 21-152, limits assumed).
T9 construct: domain: cysteine rich domain (CRD)
T9 sequence (looked up): T8 sequence (looked up) with L6M, V17I, T29M, S61G, K105N, R107K, S115R
As to the kind of experiment: BLI. As for the experimental part: as §1

The next assay deals with T10, mouse Fzd4 CRD (mouse, UniProt Q61088 37-163, limits assumed).
T10 construct: domain: cysteine rich domain (CRD)
T10 sequence (looked up): T3 sequence (looked up) with S15A, K97R, E105D, S106T
As to the kind of experiment: BLI. As for the experimental part:
as §1

A further assay concerns the target human Fzd2 CRD (human, UniProt Q14332 24-155). As to the kind of experiment: BLI. As for the experimental part: as §1
The next assay has as its target T11, human Fzd9 CRD (human, UniProt O00144 23-157, limits assumed).
T11 construct: domain: cysteine rich domain (CRD)
T11 sequence (looked up): T4 sequence (looked up) with P14A, M20V, Q50E, S55A
As to the kind of experiment: BLI. As for the experimental part: as §1

Another assay deals with human Fzd7 CRD (human, UniProt O75084 33-165). Nature of the assay: BLI. As for the experimental part: as §1
Another assay deals with T12, mouse Fzd6 CRD (mouse, UniProt Q61089 19-134, limits assumed).
T12 construct: domain: cysteine rich domain (CRD)
T12 sequence (looked up): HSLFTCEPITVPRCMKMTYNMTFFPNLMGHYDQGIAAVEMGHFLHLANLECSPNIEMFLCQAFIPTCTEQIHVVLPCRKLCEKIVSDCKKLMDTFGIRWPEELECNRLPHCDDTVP
As to the kind of experiment: BLI. As for the experimental part:
as §1

The target of the next assay is mouse Fzd7 CRD (mouse, UniProt Q61090 33-165). As to the kind of experiment: BLI. The procedure: as §1
Assay [1] has as its target T13, human Fzd8 cysteine rich domain (CRD) (human, UniProt Q9H461 28-153, limits assumed).
T13 construct: domain: cysteine rich domain (CRD); C-terminally biotinylated in the BLI assay; also called hFzd8; hFzd8 (CRD)
T13 sequence (looked up): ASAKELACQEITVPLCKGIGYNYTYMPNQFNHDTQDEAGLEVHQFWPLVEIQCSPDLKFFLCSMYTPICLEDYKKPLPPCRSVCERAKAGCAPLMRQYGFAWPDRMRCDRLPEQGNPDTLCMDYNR
As to the kind of experiment: BLI, Fab on captured biotinylated Fzd CRD; *** = 100 nM > KD >= 10 nM. The procedure: as §1

In another assay the target is Fzd2 CRD (UniProt Q14332 24-155). As to the kind of experiment: BLI (Octet Red 96), biotinylated Fzd2 CRD on streptavidin biosensor. The procedure:
Binding kinetics of monospecific Fzd binders to either (CRD) or the extracellular hinge region (hinge) was determined by bio-layer interferometry (BLI) using Octet Red 96 (PALL ForteBio, Fremont, Calif.) instruments at 30° C., 1000 rpm with streptavidin (SA) biosensors. N-terminal biotinylated Fzd1 or Fzd2 CRD and Fzd1 or Fzd 2 hinge proteins were captured on the SA biosensor. Following capture of biotinylated-Fzd1 or Fzd2, the SA biosensor with captured […] was dipped into wells containing the relevant antibodies at 7 different concentrations in running buffer plus a well with only running buffer as a reference channel. KD was determined by global fitting. As shown in FIGS. 4A-4H these antibody fusion proteins only bound to either Fzd1 or Fzd2 protein with the hinge region, and not to the CRD domains alone.

Where a chain is given by its changes, count along the chain named.

B1: 027S-E5 Fab (Fab, V domains shown)
VH: QVQLEQSGAEVKKPGASVKVSCKASGGTFSSYAISWVRQAPGQGLEWMGMINPSGGSTTYAQKFQGRVTMTRDTSTSTVYMELSSLRSEDTAVYYCARQAGLHCSSTSCYLGNWFDPWGQGTLVTVSS
VL: DIQMTQSPSSLSASVGDRVTITCRASQGITKSLAWYQQKPGKAPKLLIYAASNLATGVPSRFSGSGSGTDFTLTISSLQPEDFATYYCQQYNTFPITFGQGTRLEIKR
notes: Fab chains as printed, heavy chain with hexa-histidine tag; also called 027S-E05
Take B1: the binding result in the assay with mouse Fzd3 CRD, with human Fzd3 CRD, with human Fzd4 CRD, with mouse Fzd9 CRD, with human Fzd6 CRD and with mouse Fzd1 CRD was “no binding (tested: 1000 nM)” each time. Besides, the binding result with mouse Fzd2 CRD, with human Fzd1 CRD, in the assay with human Fzd5 CRD, with mouse Fzd5 CRD, with mouse Fzd10 CRD and with human Fzd10 CRD was “no binding (tested: 1000 nM)” each time. In addition, the binding result in the assay with mouse Fzd4 CRD, in the assay with human Fzd2 CRD, with human Fzd9 CRD, with human Fzd7 CRD, in the assay with mouse Fzd6 CRD and with mouse Fzd7 CRD was “no binding (tested: 1000 nM)” in each case. Also, in assay [1], the equilibrium dissociation constant (KD) was in the range of 10 to 100 nM.

B2: 031S-B02 Fab (Fab, V domains shown)
VH: EVQLLESGGGLVQPGGSLRLSCAASGFTFSSYWMSWVRQAPGKGLEWVSAIGGSGANAYYADSVKGRFTISRDNSKNTLYLQMNSLRAEDTAVYYCVRDTNWAFDLWGQGTMVTVSS
VL: EIVMTQSPATLSVSPGERATLSCRASQSVSGSYLAWYQQKPGQAPRLLIYGASTRATGIPARFSGSGSGTEFTLTISSLQSEDFAVYYCQQYGSSPLTFGQGTKVEIK
notes: also called 31SB2
Regarding B2, the binding result in the assay with Fzd2 CRD was “no binding”.
